These results are taken from patent US20030060605A1 (LA JOLLA INSTITUTE FOR ALLERGY AND IMMUNOLOGY, published 2003).

The term Kd denotes a measure of binding affinity in units of concentration. Lower therefore signals a tighter complex. One may read the koff as the first-order rate constant of dissociation. A low value points to a long-lived complex. Broadly, the kon is the second-order rate constant of association. The term EC50 (read off the curve) denotes the concentration needed to bring the measured effect to its halfway point. Read a low EC50 (read off the curve) as an effect from little substance. As a reminder, the EC50 is the concentration needed to bring the measured effect to its halfway point.

Sequences and labels used below:
B5: HVEM:Fc fusion protein (extracellular region of HVEM, 1 to K184, fused to the Fc of human IgG1) (Fc fusion, UniProt Q92956 39-184, looked up)
chain: LPSCKEDEYPVGSECCPKCSPGYRVKEACGELTGTVCEPCPPGTYIAHLNGLSKCLQCQMCDPAMGLRASRNCSRTENAVCGCSPGHFCIVQDGDHCAACRAYATSSPGQRVQKGGTESQDTLCQNCPPGTFSPNGTLEECQHQTK
notes: range 1-184; Made in the baculovirus vector pVL1392; Residues 1-184 include the signal peptide; also called huHVEM:Fc; hu HVEM:Fc; not shown: Fc of human IgG1

Assay [1] addresses human LTβR:Fc (human) (UniProt P36941). Nature of the assay: SPR (BIAcore 1000), receptor:Fc amine-coupled to CM5, LIGHT as analyte 100-500 nM. For orientation: In SPR one partner is held on a chip, and binding of the other changes the refractive index at the surface.
The target in assay [2] is HVEM:Fc fusion protein (extracellular region of HVEM, 1 to K184, fused to the Fc of human IgG1) (human) (UniProt Q92956). The description is as above.
For assay [3], the target named is human LTβR:Fc (human) (UniProt P36941). Nature of the assay: ELISA, receptor:Fc coated as capture (150 ng/well), FLAG-tagged ligand, M2 anti-FLAG and goat anti-mouse HRP, OD 415 [panel Human LTβR:Fc]. Background: In an ELISA, binding on a coated surface is turned into a signal by an enzyme label.
For assay [4], the target named is mouse LTβR:Fc (residues 1 to Met221 of the extracellular domain of mouse LTβR) (mouse) (UniProt P50284). Nature of the assay: ELISA, receptor:Fc as capture, M2 anti-FLAG detection.
Assay [5] concerns the target mouse HVEM:Fc (extracellular region of mouse HVEM, Met1 to Ser205, fused to the Fc of human IgG1) (mouse; human) (UniProt Q80WM9). The assay is described as above.
Assay [6] concerns the target LTβR on the surface of human cells (HT29, NHDF) (human) (UniProt P36941). Nature of the assay: cell-based or functional assay.
Assay [7] has as its target gD-1 (Δ290-299t), mutant of soluble HSV gD-1 (herpes simplex virus type 1, UniProt Q69091 26-331). Nature of the assay: binding inhibition experiments, flow cytometry. On the technique in general: A flow cytometer gives signals particle by particle.
The target of assay [8] is soluble HSV gD-1 (glycoprotein D of HSV-1) (herpes simplex virus type 1, UniProt Q69091 26-331). Nature of the assay: binding inhibition experiments, flow cytometry.
Assay [9] deals with T1, p30 (LIGHT), the 30 kDa cell surface HVEM ligand of activated II-23.D7 T hybridoma cells and human T cells (human, UniProt O43557 1-240).
T1 construct: whole, on cells; On the cell surface in flow cytometry; in NP40 detergent extracts in the precipitations
Nature of the assay: competition flow cytometry: II-23.D7 cells activated with PMA and ionomycin, pre-incubated with the Fc protein, then HVEM:Fc-rabbit 2 µg/ml, goat anti-rabbit IgG-PE [lower graph].

Assay [10] concerns the target LTβR on the surface of human cells (HT29, NHDF) (human, UniProt P36941 31-435). The experiment in a line: cell-based or functional assay.
Assay [11] addresses B5. The experiment in a line: competition flow cytometry: HVEM:Fc pre-incubated with the ligand 30 min at 4 C, then added to II-23.D7 cells activated with PMA and ionomycin (p30 on the cells), anti-huIgG-PE [lower graph].
Assay [12] addresses B5. The experiment in a line: competition flow cytometry: HVEM:Fc pre-incubated with the ligand, then added to II-23.D7 cells activated with PMA and ionomycin (p30 on the cells), anti-huIgG-PE [lower graph].
In assay [13] the target is T1, p30 (LIGHT), the 30 kDa cell surface …. The experiment in a line: flow cytometry, saturation binding on activated II-23.D7 cells; whole activated (PMA + ionomycin) II-23.D7 cells; apparent half-maximal binding by flow cytometry.
Another assay concerns the target T2, LTαTyr108Phe (UniProt P01374 35-205).
T2 construct: also called LTαY108F; LTα (Y108F)
T2 sequence (looked up): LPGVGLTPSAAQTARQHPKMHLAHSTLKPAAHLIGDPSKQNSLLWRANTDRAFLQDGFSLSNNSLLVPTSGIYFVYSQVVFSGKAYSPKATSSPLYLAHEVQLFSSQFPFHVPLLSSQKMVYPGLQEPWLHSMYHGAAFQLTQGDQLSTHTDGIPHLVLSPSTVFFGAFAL
Nature of the assay: competition flow cytometry: HVEM:Fc pre-incubated with the ligand, then added to II-23.D7 cells activated with PMA and ionomycin, anti-huIgG-PE.

Assay [14] addresses T3, LTβ (33 kDa) and LTα (23-25 kDa) complex from detergent extracts of PMA activated II-23.D7 cells (human, UniProt P01374 35-205; Q06643 1-244).
T3 construct: Native complex, in NP40 extract; also called LTα1β2 complex; surface LTα1β2
T3 sequence (looked up) 1: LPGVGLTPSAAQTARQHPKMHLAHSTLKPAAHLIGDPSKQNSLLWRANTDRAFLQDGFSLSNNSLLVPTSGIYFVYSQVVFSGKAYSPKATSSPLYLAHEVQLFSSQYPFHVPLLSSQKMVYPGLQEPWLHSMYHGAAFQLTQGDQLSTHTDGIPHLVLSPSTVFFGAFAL
T3 sequence (looked up) 2: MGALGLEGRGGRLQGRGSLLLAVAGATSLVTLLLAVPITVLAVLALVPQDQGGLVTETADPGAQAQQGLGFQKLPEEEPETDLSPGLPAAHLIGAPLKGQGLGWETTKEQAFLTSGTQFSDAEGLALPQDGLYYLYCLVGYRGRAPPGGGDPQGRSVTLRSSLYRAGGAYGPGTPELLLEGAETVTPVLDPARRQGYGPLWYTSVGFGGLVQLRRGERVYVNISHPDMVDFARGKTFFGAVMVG
The experiment in a line: flow cytometry, II-23.D7 cells activated with PMA alone, goat anti-human IgG-PE; target taken as the surface LTα1β2 of these cells [upper histogram].

T1 sequence (O43557 whole entry): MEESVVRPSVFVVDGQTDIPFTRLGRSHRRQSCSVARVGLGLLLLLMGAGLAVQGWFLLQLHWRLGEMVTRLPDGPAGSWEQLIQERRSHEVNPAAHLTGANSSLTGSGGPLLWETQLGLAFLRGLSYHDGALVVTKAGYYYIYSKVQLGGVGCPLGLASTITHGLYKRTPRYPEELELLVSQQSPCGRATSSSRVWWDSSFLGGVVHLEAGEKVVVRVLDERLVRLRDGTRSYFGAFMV
Sequence of mouse LTβR:Fc (residues 1 to Met221 of the extracellular domain of mouse LTβR) (mouse) (P50284 31-221): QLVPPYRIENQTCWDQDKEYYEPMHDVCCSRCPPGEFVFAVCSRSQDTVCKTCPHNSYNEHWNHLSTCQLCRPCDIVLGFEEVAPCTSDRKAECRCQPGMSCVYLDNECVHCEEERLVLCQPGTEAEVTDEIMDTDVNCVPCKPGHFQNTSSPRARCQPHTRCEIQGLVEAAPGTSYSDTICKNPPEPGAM

As to “LIGHTt66-FLAG, recombinant soluble homotrimeric LIGHT lacking the N-terminal 66 amino acids (ligand)”, in the assay with human LTβR:Fc (human) [1], the Kd is 4.5 nM, the koff was 0.00012 s⁻¹ and the kon is 27000 M⁻¹ s⁻¹. In assay [2], the Kd was 3.9 nM, the koff was determined as 4.8e-05 s⁻¹ and the kon is 12000 M⁻¹ s⁻¹. Also, the EC50 (read off the curve) in the assay with human LTβR:Fc (human) [3] was 0.3 nM. For the same molecule, the fold lower affinity (against the human receptors) in [4] was found to be 10 fold. Also, the fold lower affinity (against the human receptors) in assay [5] stood at 10 fold. In assay [6], this molecule registered an IC50 for inhibition of pp28 expression (HCMV infected NHDF, western blot) of 0.4 nM; a concentration that completely inhibits the cytopathic effect of HCMV of 100 pM; a dose for 50% cytotoxicity to HT29 cells (MTT, with IFNγ) of 10 to 100 pM; an up-regulation of ICAM expression by NHDF cells (fold induction, flow cytometry) of 4 fold.

B1: TNFR60:Fc (Fc fusion, UniProt P19438 30-211, looked up)
chain: LVPHLGDREKRDSVCPQGKYIHPQNNSICCTKCHKGTYLYNDCPGPGQDTDCRECESGSFTASENHLRHCLSCSKCRKEMGQVEISSCTVDRDTVCGCRKNQYRHYWSENLFQCFNCSLCLNGTVHLSCQEKQNTVCTCHAGFFLRENECVSCSNCKKSLECTKLCLPQIENVKGTEDSGTT
notes: also called TNFR:Fc; TNFR1-Fc; not shown: Fc region of human IgG1
For the molecule B1, the binding result in [7] and in [8] was “no binding” throughout.

B2: Fas:Fc (Fc fusion, UniProt P25445 26-173, looked up)
chain: QVTDINSKGLELRKTVTTVETQNLEGLHHDGQFCHKPCPPGERKARDCTVNGDEPDCVPCQEGKEYTDKAHFSSKCRRCRLCDEGHGLEVEINCTRTQNTKCRCKPNFFCNSTVCEHCDPCTKCEHGIIKECTLTSNTKCKEEGSRSN
notes: not shown: Fc region of human IgG1
B2: the binding result in [9] is on record as “no binding”.

B3: recombinant soluble LTα1β2 (ligand)
chain 1: LPGVGLTPSAAQTARQHPKMHLAHSTLKPAAHLIGDPSKQNSLLWRANTDRAFLQDGFSLSNNSLLVPTSGIYFVYSQVVFSGKAYSPKATSSPLYLAHEVQLFSSQYPFHVPLLSSQKMVYPGLQEPWLHSMYHGAAFQLTQGDQLSTHTDGIPHLVLSPSTVFFGAFAL
chain 2: QDQGGLVTETADPGAQAQQGLGFQKLPEEEPETDLSPGLPAAHLIGAPLKGQGLGWETTKEQAFLTSGTQFSDAEGLALPQDGLYYLYCLVGYRGRAPPGGGDPQGRSVTLRSSLYRAGGAYGPGTPELLLEGAETVTPVLDPARRQGYGPLWYTSVGFGGLVQLRRGERVYVNISHPDMVDFARGKTFFGAVMVG
Take B3: the “IC50 for inhibition of pp28 expression (HCMV infected NHDF, western blot)” value in assay [10] amounted to 1 nM.

B4: LTα homotrimer (ligand, UniProt P01374 35-205, looked up)
chain: LPGVGLTPSAAQTARQHPKMHLAHSTLKPAAHLIGDPSKQNSLLWRANTDRAFLQDGFSLSNNSLLVPTSGIYFVYSQVVFSGKAYSPKATSSPLYLAHEVQLFSSQYPFHVPLLSSQKMVYPGLQEPWLHSMYHGAAFQLTQGDQLSTHTDGIPHLVLSPSTVFFGAFAL
notes: One entry for the recombinant protein and for the native LTα (23-25 kDa, and the 23 kDa precursor) of the human II-23.D7 cells; also called recombinant LTα; secreted LTα
Turning to B4, the figures for the “IC50 (read off the curve)” value in assay [11] and in assay [12] were roughly 30 nM and roughly 50 nM, respectively.

As to B5, the EC50 in assay [13] is 20 nM. In addition, the binding result (with LTαTyr108Phe; in assay [14]) was “no binding” throughout.
